According to paper PMC6017123, “HnRNPA1 Specifically Recognizes the Base of Nucleotide at the Loop of RNA G-Quadruplex”:

Key:
hnRNPA1 [1] = target: T1, hnRNPA1 (UniProt P09651 1-251+304-372, internal_change); assay: EMSA; 100 mM Na+; EMSA: 10 mM Tris-HCl pH 7.0, 100 mM NaCl, 0.1 mg/mL BSA, 5 mM DTT, 10% glycerol, 30 min room temperature; 8% native PAGE, 1x TBE + 20 mM NaCl, 80 V, 4 C; conditions: protein: recombinant; (pET-15b, Ni-NTA); label: 32P (T4 PNK, 5'); intermolecular dimeric parallel G-quadruplex, 2 strands
T1 sequence (P09651 other isoform, or with tags, fused parts or gaps): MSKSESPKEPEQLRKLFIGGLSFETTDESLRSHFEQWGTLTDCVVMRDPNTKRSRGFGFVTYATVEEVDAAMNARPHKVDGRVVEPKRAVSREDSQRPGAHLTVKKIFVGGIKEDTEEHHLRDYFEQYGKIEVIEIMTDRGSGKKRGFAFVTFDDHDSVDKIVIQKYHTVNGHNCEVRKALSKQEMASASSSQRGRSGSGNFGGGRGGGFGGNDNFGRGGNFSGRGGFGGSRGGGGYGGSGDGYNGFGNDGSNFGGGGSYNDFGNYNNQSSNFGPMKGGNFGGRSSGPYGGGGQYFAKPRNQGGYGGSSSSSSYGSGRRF

hnRNPA1 [2] = target: T1, hnRNPA1; assay: CD; peak shift 265 to 260 nm on protein addition; Na+; EMSA: 10 mM Tris-HCl pH 7.0, 100 mM NaCl, 0.1 mg/mL BSA, 5 mM DTT, 10% glycerol, 30 min room temperature; 8% native PAGE, 1x TBE + 20 mM NaCl, 80 V, 4 C; conditions: protein: recombinant; (pET-15b, Ni-NTA); label: 32P (T4 PNK, 5'); intermolecular dimeric parallel G-quadruplex, 2 strands

UUAGGGUUAGGG (structured_RNA) [Native-RNA-Gq]: binds (hnRNPA1 [1]).

UUAGGGUUAGGG (XNA, 2'-O-methyl at positions 7-9 (UmUmAm)) [2'-O-Me-loop-Gq]: binds (hnRNPA1 [2]).
